What all share (format): in vivo, Sprague-Dawley rats
For assay [1], the system named is TRPV1. Nature of the assay: Immunohistochemistry of masseter ganglion neurons after NGF injection: TRPV1. The note with it: 3 days after NGF 25 μg/ml, 10 μl; n=5 rats. The procedure:
(§1) To identify trigeminal ganglion neurons that innervate the masseter muscle, the fluorescent tracer dye Fast Blue (2%, Polysciences, Warrington, PA) was injected bilaterally into the masseter muscles of rats (n=5),7 days prior to euthanization. NGF (25 μg/ml, 10 μI, Sigma, St. Louis, MO) or vehicle (phosphate buffered saline, PBS, 10 μI) was injected into the left and right masseter muscles, respectively, three days before euthanization. Under deep isoflurane anesthesia, animals were perfused with 120 ml cold saline followed by 120 ml of paraformaldehyde (4%). Trigeminal ganglia and masseter muscles were removed, incubated in 20% and then 40% sucrose for 48h each to cryoprotect the tissue, and cut into 10 μm sections with a cryotome. […] Fast Blue positive cells were counted and photographed for estimation of cell diameter. […]
(§2) For the immunohistochemistry experiment, the frequency of expression of CB1, CB2 and TRPV1, respectively, in trigeminal ganglion neurons between NGF and vehicle-injected sides was analyzed with a paired Student's t-test. For the behavioral and electrophysiological experiments, MT from NGF and vehicle-injected sides was analyzed with a two-way repeated measures analysis of variance (ANOVA) with time and treatment as factors. Relative mechanical activation threshold (Rel MT) was calculated as 100×Post-treatment MT/Baseline MT. […]

Assay [2] concerns CB1. The assay is described as follows: Immunohistochemistry of masseter ganglion neurons after NGF injection: CB1. The settings on record: 3 days after NGF 25 μg/ml, 10 μl; saline side 52±3%; n=5 rats. The procedure: as §1, §2
Assay [3] concerns CB2. Nature of the assay: Immunohistochemistry of masseter ganglion neurons after NGF injection: CB2. The note with it: 3 days after NGF 25 μg/ml, 10 μl; saline side 47±5%; n=5 rats. On the procedure:
as §1, §2

For assay [4], the system named is NGF-induced sensitization in female rat masseter muscle. Nature of the assay: Behavioral mechanical threshold (electronic von Frey) of NGF-sensitized masseter muscle. The settings on record: 3 days after intramuscular injection of NGF 25 μg/ml, 10 μl. The text has this: Female (259-350 g, n=55) Sprague-Dawley rats were used for all experiments. Animals were housed in groups of two with a 12-h light/dark cycle. Food and water were given ad libitum. All animal procedures were reviewed and approved by the University of British Columbia Animal Care Committee.
Appropriate volumes of each solution were evaporated under nitrogen gas, and subsequently re-solubilized with 4% Tween 80 in isotonic saline to final concentrations used for injection.
Three days before behavioral experiments, rats received an injection of NGF (25 μg/ml, 10 μl, Sigma, St. Louis, MO) or vehicle (phosphate buffered saline, PBS, 10 μl) into the left and right masseter muscles, respectively, under brief isoflurane anesthesia. […] This is accompanied by an increase in NMDA receptor expression in peripheral trigeminal ganglion neurons with a peak at three days after injection (15). […] The masseter muscle region was shaved prior to injection and the injection sites were marked with a permanent marker for subsequent identification. The concentration of NGF was selected based on the concentration used in previous human experimental pain studies and experiments in rats (15, 24, 25, 26, 27). The investigator was blinded to the identity of the treatment groups until after all data was collected.
MT was assessed with a rigid electronic von Frey hair (IITC Life Science, Woodland Hills, CA). Before NGF injection, rats were habituated to restraint in a towel. […] The mechanical test stimulus was applied at 1 min intervals for 5 min and the average was calculated for further analysis. MT was measured daily for 5 days prior to the start of the experiment to determine that measurements were stable. MT readings recorded prior to NGF injection were used as naïve baseline. […] On the test day, a post-NGF injection baseline (NGF baseline) was recorded before injection of cannabinoid treatment groups. After treatment injections, MT was measured at 10, 30, 60, and 120 min after injection.
For the immunohistochemistry experiment, the frequency of expression of CB1, CB2 and TRPV1, respectively, in trigeminal ganglion neurons between NGF and vehicle-injected sides was analyzed with a paired Student's t-test. For the behavioral and electrophysiological experiments, MT from NGF and vehicle-injected sides was analyzed with a two-way repeated measures analysis of variance (ANOVA) with time and treatment as factors. Relative mechanical activation threshold (Rel MT) was calculated as 100×Post-treatment MT/Baseline MT. Post hoc Holm Sidak's multiple comparison tests were used to compare post injection mechanical thresholds between treatment groups at each time point. One-way repeated measures ANOVA on ranks was used to analyze test scores in the inverted screen tests. A probability level of 0.05 was considered significant for all tests. Error bars represented standard error of the mean.

B1: NGF: nerve growth factor (Sigma) injected into masseter muscle to induce mechanical sensitization (protein, UniProt P01139 122-241, looked up)
Beta-nerve growth factor: SSTHPVFHMGEFSVCDSVSVWVGDKTTATDIKGKEVTVLAEVNINNSVFRQYFFETKCRASNPVESGCRGIDSKHWNSYCTTTHTFVKALTTDEKQAAWRFIRIDTACVCVLSRKATRRG
B1: in assay [1], the “Effect on TRPV1 expression in masseter ganglion neurons” value was “No significant effect”. Besides, the “Frequency of expression of CB1 in masseter ganglion neurons, NGF-injected side” value in assay [2] is on record as 39±3%. Further, the “Frequency of expression of CB2 in masseter ganglion neurons, NGF-injected side” value in assay [3] is recorded as 33±6%. For the same molecule, the “Decrease of masseter muscle MT” value in assay [4] came to 31%.
